B1: library; numbered along this chain (parent)
chain: MRKPRAAVGSGHRKQAASQEGRQKHAKNNSQAKPSACDGLARQPEEVVLQASVSSYHLFRDVAEVTAFRGSLLSWYDQEKRDLPWRRRAEDEMDLDRRAYAVWVSEVMLQQTQVATVINYYTGWMQKWPTLQDLASASLEEVNQLWAGLGYYSRGRRLQEGARKVVEELGGHMPRTAETLQQLLPGVGRYTAGAIASIAFGQATGVVDGNVARVLCRVRAIGADPSSTLVSQQLWGLAQQLVDPARPGDFNQAAMELGATVCTPQRPLCSQCPVESLCRARQRVEQEQLLASGSLSGSPDVEECAPNTGQCHLCLPPSEPWDQTLGVVNFPRKASRKPPREESSATCVLEQPGALGAQILLVQRPNSGLLAGLWEFPSVTWEPSEQLQRKALLQELQRWAGPLPATHLRHLGEVVHTFSHIKLTYQVYGLALEGQTPVTTVPPGARWLTQEEFHTAAVSTAMKKVFRVYQGQQPGTCMGSKRSQVSSPCSRKKPRMGQQVLDNFFRSHISTDAHSLNSAAQ

Variants of: B1
Test: 8OG:A repair function score (normalized; synonymous = 0, nonsense = -1) (normalized log-likelihood score); higher = more repair activity (WT-like)
Conditions: with 8OG:A DNA repair reporter (GFP) in HEK-293 MUTYH KO cells
Description: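 Saturation mutagenesis (NNN codon scan) of the MUTYH cDNA (521-aa nuclear isoform NM_001048174.1 / NP_001041639), stably expressed under doxycycline induction in HEK-293 MUTYH knockout cells. Cells were co-transfected with an 8OG:A-bearing GFP repair reporter plus mCherry and sorted 72 h later into GFP+ and GFP− bins, three replicates per tile. The Rosace log2 enrichment (GFP+ vs GFP−) was converted per tile to a normalized function score with synonymous variants centered at 0 and nonsense variants (codons 1-471) at -1; low-abundance variants were removed.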

Row | Variant | 8OG:A repair function score
1 | E92L | -0.011
2 | E92W | -0.152
3 | E92V | -0.0677
4 | E92T | -0.112
5 | E92F | -0.016
6 | E92M | -0.0276
7 | E92K | -0.0744
8 | E92G | -0.183
9 | E92C | -0.0208
10 | E92D | -0.0315
11 | E92I | -0.0645
12 | E92R | -0.0994
13 | E92N | -0.0998
14 | E92Q | -0.0495
15 | E92Y | -0.0538
16 | E92S | -0.0176
17 | E92H | -0.0814
18 | E92P | -0.0511
19 | E92A | -0.0671
20 | D91L | 0.00629
21 | D91Y | 0.00276
22 | D91G | -0.00708
23 | D91R | 0.00216
24 | D91F | 0.00319

Row | Variant | 8OG:A repair function score
25 | D91C | -0.0114
26 | D91K | 0.00215
27 | D91V | 0.0064
28 | D91A | 0.0065
29 | D91S | -0.00182
30 | D91P | -0.0949
31 | D91M | 0.00436
32 | D91Q | -0.103
33 | D91H | 0.0064
34 | D91I | 0.00656
35 | D91N | -0.0978
36 | D91E | -0.0053
37 | D91T | -0.0112
38 | D91W | -0.00643
39 | E90Y | -0.107
40 | E90W | -0.0857
41 | E90H | -0.0294
42 | E90G | 0.00689
43 | E90S | -0.0214
44 | E90K | 0.00313
45 | E90M | 0.0018
46 | E90C | -0.00217
47 | E90D | 0.000961
48 | E90V | 0.0003

Row | Variant | 8OG:A repair function score
49 | E90R | 0.0046
50 | E90P | -0.164
51 | E90T | -0.0178
52 | E90L | 0.0056
53 | E90N | -0.0107
54 | E90Q | -0.0474
55 | E90F | -0.0713
56 | E90I | -0.0086
57 | E90A | 0.00572
58 | R97V | 0.00683
59 | R97Y | -0.0378
60 | R97F | -0.0465
61 | R97T | -0.00706
62 | R97S | -0.0417
63 | R97H | -0.211
64 | R97A | 0.00655
65 | R97C | 0.00684
66 | R97E | 0.00633
67 | R97G | -0.0171
68 | R97W | -0.346
69 | R97D | 0.00527
70 | R97K | -0.0457
71 | R97P | -1.03
72 | R97L | -0.0375

Row | Variant | 8OG:A repair function score
73 | R97M | -0.0359
74 | R97N | 0.00607
75 | R97Q | 0.00692
76 | R97I | 0.00215
77 | M93F | 0.00598
78 | M93G | -0.0185
79 | M93P | -0.0336
80 | M93Q | 0.00486
81 | M93W | -0.00669
82 | M93R | 0.00556
83 | M93K | 0.00623
84 | M93E | 0.0066
85 | M93Y | -0.0084
86 | M93L | -0.0284
87 | M93A | 0.00637
88 | M93T | 0.00168
89 | M93S | -0.0236
90 | M93I | -0.0705
91 | M93D | 0.0046
92 | M93V | 0.00114
93 | M93N | 0.00661
94 | M93H | -0.01
95 | M93C | 0.00101
96 | D96S | -0.15

Row | Variant | 8OG:A repair function score
97 | D96L | -0.43
98 | D96W | -0.378
99 | D96E | -0.143
100 | D96G | -0.0459
101 | D96F | -0.446
102 | D96P | -0.177
103 | D96N | -0.00561
104 | D96R | -0.506
105 | D96Y | -0.308
106 | D96V | -0.431
107 | D96M | -0.441
108 | D96C | -0.291
109 | D96A | -0.536
110 | D96T | -1.12
111 | D96Q | -0.0411
112 | D96I | -0.341
113 | D96K | -0.758
114 | D96H | -0.132
115 | L95P | -0.00578
116 | L95W | -0.127
117 | L95I | -0.0112
118 | L95E | -0.00548
119 | L95Y | -0.0972
120 | L95G | 0.00593

Row | Variant | 8OG:A repair function score
121 | L95N | -8.88e-05
122 | L95T | -0.0603
123 | L95M | 0.0014
124 | L95Q | -0.0116
125 | L95H | -0.053
126 | L95S | -0.00398
127 | L95R | -0.104
128 | L95D | 0.00648
129 | L95V | -0.00351
130 | L95C | -0.0111
131 | L95F | -0.0596
132 | L95K | -0.0064
133 | L95A | 0.00636
134 | D94T | -0.178
135 | D94H | -0.136
136 | D94I | -0.0559
137 | D94R | -0.182
138 | D94Y | -0.33
139 | D94Q | -0.215
140 | D94P | -0.157
141 | D94S | -0.0913
142 | D94V | -0.128
143 | D94E | -0.625
144 | D94G | -0.231

Row | Variant | 8OG:A repair function score
145 | D94N | -0.0146
146 | D94F | -0.287
147 | D94M | -0.104
148 | D94K | -0.193
149 | D94L | -0.105
150 | D94A | -0.329
151 | D94C | -0.112
152 | D94W | -1
153 | R98C | -0.578
154 | R98E | -0.275
155 | R98A | -0.175
156 | R98D | -0.438
157 | R98F | -0.114
158 | R98G | -0.574
159 | A89T | -0.00868
160 | A89V | 0.00684
161 | A89Q | -0.0663
162 | A89N | -0.00625
163 | A89P | -0.00485
164 | A89W | -0.0308
165 | A89R | -0.0424
166 | A89S | 0.00694
167 | A89Y | -0.00929

Reference: the supplement of paper PMC11908140
